Positions count from the first letter of the chain named. Values joined by “and” are separate entries in the source; they are usually repeats but may differ in a detail not shown here. Equal values may be shown once.
B1: ILT70080.1 (antibody, V domains shown)
VH: QVQLVQSGAEVKKPGSSVKVSCKASGDSFRNYAVSWVRQAPGQGLEWMGAMMPSFGTREHSQQFQGRVTLTADESTSTAYMELSSLRSEDTAVYYCAGSRDYNAYHFWTGPPDFWGRGTLVTVSS
VL: SYVLTQPPSVSVAPGKTARITCGGDSVGSTSVHWYQQKPGQAPVMVMFYNSDRPSGIPERFSGSISGNTATLTISRVEAGDEADYYCQVWDTSSDHPEFGGGTKLTVL
notes: Engineered (germlined) variant of ILT70080, tested as IgG1
B2: ILT70080.6 (antibody, V domains shown)
VH: B1 VH
VL: B1 VL with M45L, M47I, F48Y, I65N
notes: as for B1
B3: ILT70080.7 (antibody, V domains shown)
VH: B1 VH
VL: B1 VL with M45L, I65N
notes: as for B1
B4: ILT70080.2 (antibody, V domains shown)
VH: B1 VH with T71S
VL: B1 VL
notes: as for B1
B5: ILT70080.3 (antibody, V domains shown)
VH: B1 VH with K13A, S16T, T71S
VL: B1 VL
notes: as for B1
B6: ILT70080.4 (antibody, V domains shown)
VH: B1 VH with K13A, S16T, T71S
VL: B1 VL with V3E, R19K, T21S
notes: as for B1
B7: ILT70080.5 (antibody, V domains shown)
VH: B1 VH
VL: B1 VL with I65N
notes: as for B1
B8: ILT70052 (antibody, V domains shown)
VH: EVQLVESGGGLVKPGGSLRLSCEASGFTFTDYYMNWIRQAPGKGLEWISYISPGGTTVYYADSVKGRFTISRDNAKNSLYLQMNSLRVEDTAVYYCARDISGYGDWFDPWGKGTLVTVSS
VL: QSVVTQPPSASGTPGQRVTISCSGSSSNIGSNTVNWYQLLPATAPRILIYNNNQRPSGVPDRFAGSKSGTSASLAISGLQSEDEADYYCGAWDDSLNSPVFGGGTKLTVL
B9: ILT70100 (antibody, V domains shown)
VH: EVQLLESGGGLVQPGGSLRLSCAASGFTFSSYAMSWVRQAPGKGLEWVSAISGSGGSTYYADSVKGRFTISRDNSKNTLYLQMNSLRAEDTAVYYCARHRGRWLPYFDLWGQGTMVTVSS
VL: DIQLTQSPSSLSASVGERVTITCQASQDIRSYLNWYQQKPGKAPKLLIYDVSNLETGVPSRFSGSGSGTEYTFSISSLQPEDFATYYCQQYDKAPLTFGGGTKVEIK
B10: ILT70144 (antibody, V domains shown)
VH: QVQLVQSGAEVKKPGASVKVSCKASGYTFTSYGISWVRQAPGQGLEWMGWISAYNGNTNYAQKLQGRVTMTRDTSISTAYMELSRLRSDDTAVYYCARNGLWGWDSDAFDIWGQGTTVTVSS
VL: QSVLTQPPSVSAAPGQKVTISCSGSSSNIGNNYVSWYQQLPGTAPKLLIYDNNKRPSGIPDRFSGSKSGTSATLGITGLQTGDEADYYCGTWDSSLSAGVFGTGTQLTVL
B11: afucosylated ILT70083 (antibody, V domains shown)
VH: EVQLLESGGGLVQPGGSLRLSCAASGFTFSSYAMSWVRQAPGKGLEWVSAISGSGGSTYYADSVKGWFTISRDNSKNTLYLQMNSLRAEDTAVYYCARRTYYYDSDGHSDVFDIWGRGTLVTVSS
VL: QSVVTQPPSVSAAPGQKVTISCSGSASNIGSNFVSWYQQLPGRAPKLLIYDNDKRDLGIPDRFSASISSTSAALAITGLQTEDEADYYCGTWDTSLTVGVFGGGTKLTVL
modifications: afucosylated: lacks the α-1,6 fucose moiety on the N-glycan at Asn-297 of the heavy chain
B12: ILT70142 (antibody, V domains shown)
VH: B10 VH
VL: B10 VL
B13: ILT70083.3 (antibody, V domains shown)
VH: B11 VH
VL: B11 VL with R43T, A65G, I67K, S69G, A73T, A75G, E82G
notes: Engineered (germlined) IgG1 variant of ILT70083
B14: ILT70083.1 (antibody, V domains shown)
VH: B11 VH
VL: B11 VL with R43T, A73T, A75G, E82G
B15: ILT70083.6 (antibody, V domains shown)
VH: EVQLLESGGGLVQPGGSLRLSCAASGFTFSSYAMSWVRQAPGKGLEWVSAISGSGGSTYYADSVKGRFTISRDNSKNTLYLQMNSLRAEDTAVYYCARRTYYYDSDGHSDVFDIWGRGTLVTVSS
VL: B11 VL with R43T, A73T, A75G, E82G
notes: as for B13
B16: ILT70083.4 (antibody, V domains shown)
VH: B11 VH
VL: B11 VL with V4L, R43T, A65G, I67K, S69G, A73T, A75G, E82G
notes: as for B13
B17: ILT70083.5 (antibody, V domains shown)
VH: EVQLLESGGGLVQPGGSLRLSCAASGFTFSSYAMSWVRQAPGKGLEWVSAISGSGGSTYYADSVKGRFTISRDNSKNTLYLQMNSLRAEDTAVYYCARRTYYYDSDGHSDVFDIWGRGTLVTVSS
VL: B11 VL
notes: as for B13
B18: ILT70083.2 (antibody, V domains shown)
VH: B11 VH
VL: B11 VL with V4L, R43T, A73T, A75G, E82G
notes: as for B13
B19: ILT70083.8 (antibody, V domains shown)
VH: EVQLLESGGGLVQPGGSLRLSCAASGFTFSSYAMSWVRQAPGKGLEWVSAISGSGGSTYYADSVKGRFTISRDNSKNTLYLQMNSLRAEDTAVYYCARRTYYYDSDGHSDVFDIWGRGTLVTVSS
VL: B11 VL with R43T, A65G, I67K, S69G, A73T, A75G, E82G
notes: as for B13
B20: ILT70083.9 (antibody, V domains shown)
VH: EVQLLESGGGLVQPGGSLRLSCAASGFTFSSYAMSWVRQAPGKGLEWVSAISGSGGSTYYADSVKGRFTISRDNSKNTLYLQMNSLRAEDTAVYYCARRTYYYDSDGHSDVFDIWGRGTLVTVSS
VL: B11 VL with V4L, R43T, A65G, I67K, S69G, A73T, A75G, E82G
notes: as for B13
B21: ILT70083.7 (antibody, V domains shown)
VH: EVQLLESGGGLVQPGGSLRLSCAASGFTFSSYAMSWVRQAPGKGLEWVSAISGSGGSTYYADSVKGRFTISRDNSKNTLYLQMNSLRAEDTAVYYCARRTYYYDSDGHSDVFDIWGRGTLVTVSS
VL: B11 VL with V4L, R43T, A73T, A75G, E82G
notes: as for B13

What follows are binders tested against T1, HA-tagged human ILT7 on CT-550 cells (human, UniProt P59901 24-499) (assay: flow cytometry on CT-550 cells (human ILT7), top panel, table 'Ec50 (pM)').
T1 construct: whole, on cells; CT-550 cells: CT-125 cells (2B4 murine T-cell hybridoma with mouse FcεRIγ and NFAT-GFP reporter) transduced with HA-tagged human ILT7; also called human ILT7-expressing cells; not shown: HA tag
T1 sequence (P59901 24-499): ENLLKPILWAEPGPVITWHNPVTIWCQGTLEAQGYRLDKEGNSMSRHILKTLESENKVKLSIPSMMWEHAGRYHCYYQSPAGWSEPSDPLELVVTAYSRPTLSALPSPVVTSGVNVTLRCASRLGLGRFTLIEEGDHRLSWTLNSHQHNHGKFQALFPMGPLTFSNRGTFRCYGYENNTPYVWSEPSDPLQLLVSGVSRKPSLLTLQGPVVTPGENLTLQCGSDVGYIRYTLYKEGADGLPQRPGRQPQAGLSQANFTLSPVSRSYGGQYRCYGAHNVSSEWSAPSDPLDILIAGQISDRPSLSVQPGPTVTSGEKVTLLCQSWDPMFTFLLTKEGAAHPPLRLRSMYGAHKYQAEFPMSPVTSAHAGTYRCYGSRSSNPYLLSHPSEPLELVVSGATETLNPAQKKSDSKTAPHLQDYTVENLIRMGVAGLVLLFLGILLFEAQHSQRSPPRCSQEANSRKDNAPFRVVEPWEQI
Description: (§1) Binding of anti-ILT7 variants and isotype controls on human and cynomolgus ILT7 was assessed by flow cytometry analysis using CT-550 and cynoILT7 CT-125 cells respectively. CT-125 cells were used as control. Cells were resuspended in Blocking Buffer (PBS supplemented with 10% FBS) at a concentration of 5 million cells per mL and transferred into a round-bottom 96-well plates (BD Falcon™ Clear Microtest Plate, BD Biosciences) at 100 μL per well. Anti-ILT7 variants and control antibodies were added onto the cells for 30 min at 4° C. on a plate shaker. Cells were washed three times with PBS and resuspended in Blocking Buffer (100 μL/well). Human IgG binding on cell surface was detected using a secondary anti-human IgG antibody conjugated to DyLight 649 (1 in 1000 dilution). Cells were incubated in the dark for 30 min at 4° C. on a plate shaker. Cells were washed three times with PBS and surface fluorescence was acquired using LSRII Flow Cytometry System and FACSDiva Software (both from BD Biosciences).
Work on B1 yielded an EC50 of 0.201 nM. For B2, the EC50 was 0.287 nM. B3 was tested, and the EC50 was 0.229 nM. With B4 the EC50 was 0.225 nM. B5 gave an EC50 of 0.198 nM. Binder B6 has an EC50 of 0.337 nM. Work on B7 yielded an EC50 of 0.503 nM.

What follows are binders tested against T2, cynomolgus ILT7 (cynomolgus, UniProt P59901 24-499 (human entry)) (assay: flow cytometry on CynoILT7 CT-125 cells).
T2 construct: also called cyno ILT7; cynomolgus monkey ILT7
T2 sequence (P59901 other isoform, or with tags, fused parts or gaps limits assumed): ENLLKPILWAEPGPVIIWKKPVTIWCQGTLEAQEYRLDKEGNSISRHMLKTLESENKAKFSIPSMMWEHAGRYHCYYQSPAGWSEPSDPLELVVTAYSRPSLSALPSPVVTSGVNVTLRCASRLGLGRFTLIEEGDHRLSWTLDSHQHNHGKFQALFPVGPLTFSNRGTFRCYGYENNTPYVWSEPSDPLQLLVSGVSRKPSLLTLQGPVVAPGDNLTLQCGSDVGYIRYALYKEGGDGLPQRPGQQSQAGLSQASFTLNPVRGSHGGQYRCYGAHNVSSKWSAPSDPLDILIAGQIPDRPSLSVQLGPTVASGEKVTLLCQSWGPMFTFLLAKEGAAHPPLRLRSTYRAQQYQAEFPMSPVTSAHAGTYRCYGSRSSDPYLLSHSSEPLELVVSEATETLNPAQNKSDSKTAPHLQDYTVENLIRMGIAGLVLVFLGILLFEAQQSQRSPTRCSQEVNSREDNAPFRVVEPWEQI
Description: as §1
In order to determine the binding EC₅₀ of the variants on cells expressing cynomolgus ILT7, the antibodies were screened for binding on CynoILT7 CT-125 cells by flow cytometry. […] The graph in FIG. 3 represents the mean results from two independent experiments, and the table in FIG. 3 show the average EC₅₀.
B8 was tested, and the EC50 was 0.35 nM. Work on B9 yielded an EC50 of 1.63 nM. For B10, the EC50 was 7.81 nM.

The binders below were run against T2, cynomolgus ILT7 (assay: flow cytometry on CynoILT7 CT-125 cells (cynomolgus ILT7), bottom panel, table 'Ec50 (pM)').
Description: as §1
B1 gave an EC50 of 0.463 nM. B2 was tested, and the EC50 was 0.428 nM. Work on B3 yielded an EC50 of 0.405 nM. B4 was tested, and the EC50 was 0.503 nM. Binder B5 has an EC50 of 0.467 nM. For B6, the EC50 was 0.597 nM. Binder B7 has an EC50 of 0.612 nM.

What follows are binders tested against T2, cynomolgus ILT7 (assay: cell-based or functional assay).
In the case of B8, the “ADCC EC50” value is reported as 0.073 nM. B9 was tested, and the “ADCC EC50” value was 0.188 nM. With B11 the “ADCC EC50” value was 0.057 nM. In the case of B12, the “ADCC EC50” value is reported as 0.058 nM.

Each binder was assayed against T1, HA-tagged human ILT7 on CT-550 cells (assay: cell-based or functional assay).
For B1, the “ADCC EC50” value was < 0.0141 nM and 0.008 nM and 0.01 nM. For B2, the “ADCC EC50” value was < 0.0141 nM and 0.0069 nM. B3 was tested, and the “ADCC EC50” value was < 0.0141 nM and 0.0078 nM. With B4 the “ADCC EC50” value was less than 0.0141 nM. With B5 the “ADCC EC50” value was < 0.0141 nM and 0.011 nM. B6 was tested, and the “ADCC EC50” value was < 0.0141 nM and 0.0119 nM. B7 was tested, and the “ADCC EC50” value was < 0.0141 nM and 0.0086 nM. B13 was tested, and the “ADCC EC50” value was greater than 0.089 nM. For B14, the “ADCC EC50” value was greater than 0.089 nM. For B15, the “ADCC EC50” value was greater than 0.089 nM. For B16, the “ADCC EC50” value was greater than 0.089 nM. For B17, the “ADCC EC50” value was greater than 0.089 nM. B11 was tested, and the “ADCC EC50” value was 0.0105 nM. With B18 the “ADCC EC50” value was greater than 0.089 nM. With B19 the “ADCC EC50” value was greater than 0.089 nM. In the case of B20, the “ADCC EC50” value is reported as greater than 0.089 nM. B21 was tested, and the “ADCC EC50” value was greater than 0.089 nM.

Each binder was assayed against T1, HA-tagged human ILT7 on CT-550 cells (assay: flow cytometry (MFI) on human ILT7-expressing cells, left panel 'Human ILT7', table 'Ec50 (pM) Mean ± SD n=3').
With B2 the EC50 was 0.155 nM. B11 was tested, and the EC50 was 0.211 nM.

Each binder was assayed against T2, cynomolgus ILT7 (assay: flow cytometry on cynomolgus ILT7-expressing cells, bottom panel, table 'Ec50 (pM)').
Description: as §1
B13 showed an EC50 of 0.777 nM. B15 showed an EC50 of 1.6 nM. In the case of B16, the EC50 is reported as 0.62 nM. For B17, the EC50 was 2.28 nM. B18 was tested, and the EC50 was 15 nM. Work on B19 yielded an EC50 of 0.711 nM. In the case of B20, the EC50 is reported as 0.957 nM. B21 was tested, and the EC50 was 9.47 nM.

These binders were tested against T1, HA-tagged human ILT7 on CT-550 cells (assay: flow cytometry on human ILT7-expressing cells, left panel 'Human ILT7', table 'Ec50 (nM)').
Description: as §1
Binder B11 has an EC50 of 0.38 nM.

These binders were tested against T1, HA-tagged human ILT7 on CT-550 cells (assay: flow cytometry on human ILT7-expressing cells, top panel, table 'Ec50 (pM)').
B13 was tested, and the EC50 was 0.596 nM. For B15, the EC50 was 0.516 nM. B16 gave an EC50 of 0.353 nM. Binder B17 has an EC50 of 0.5 nM. B18 gave an EC50 of 0.863 nM. With B19 the EC50 was 0.437 nM. Work on B20 yielded an EC50 of 0.54 nM. In the case of B21, the EC50 is reported as 0.905 nM.

The binders below were run against T2, cynomolgus ILT7 (assay: flow cytometry (MFI) on cynomolgus ILT7-expressing cells, right panel 'Cynomolgus ILT7', table 'Ec50 (pM) Mean ± SD n=3').
B2 gave an EC50 of 0.37 nM. B11 gave an EC50 of 0.863 nM.

The binders below were run against T1, HA-tagged human ILT7 on CT-550 cells (assay: flow cytometry on CT-550 cells expressing human ILT7, anti-human IgG DyLight 649 detection; table 'Mean Ec50 (nM)', n = 2).
Description: as §1
In order to determine the binding EC50 of ILT70019, ILT70028, ILT70052, ILT70076, ILT70080, ILT70083, ILT70089, ILT70100, ILT70137, ILT70142 and ILT70144 on cells expressing human ILT7, the candidates were screened for binding on CT-550 cells by flow cytometry. ILT70080 (EC₅₀=0.28 nM), ILT70083 (EC₅₀=0.37 nM), ILT70137 (EC₅₀=0.41 nM), ILT70144, ILT70142, ILT70052, and ILT70100 bound to human ILT7-expressing cells. […] The anti-ILT7 antibodies 7C7 (7C7 is described above in Example 1) and SBI33 (SBI33 refers to the anti-ILT7 antibody ILT7#33 provided in U.S. Published Application No. 2009/0280128) were used as positive controls.
For B8, the EC50 was 23.1 nM. In the case of B9, the EC50 is reported as 180 nM. B12 showed an EC50 of 2.03 nM. Binder B10 has an EC50 of 1.7 nM.
